Data on one substance can be found in paper doi:10.1101/2021.03.11.435015.

This assay addresses Myc-PUM1-R1147W (human) (UniProt Q14671). Kind of assay: co-IP.

The substance “GST-CNOT1 (from UniProt A5YKK6 1-2376) (natural protein)” had a percent by which the interaction is diminished against Myc-PUM1-WT of 35%.
